Assay [1] relates to S. Aureus biofilms. As to conditions: existing data; cited from earlier work.
Assay [2] deals with S. Aureus biofilms. Description: Preliminary assessment of amylases on biofilms: reduction of existing biofilm. The class given is cell-based. As to conditions: for Reduces Biofilm: Table 1, preliminary assessment of activity on Biofilms. An excerpt: (§1) Non-limiting examples of amylases contemplated by the disclosure and their preliminary assessment of their activity on Biofilms is listed on Table 1: […]

The subject of assay [3] is S. Aureus biofilms. Description: Preliminary assessment of amylases on biofilms: prohibition of biofilm growth. As to conditions: Table 1, preliminary assessment of activity on Biofilms. The class given is cell-based.
Text: as §1

B1: α-Amylase from Bacillus subtilis: α-amylase from Bacillus subtilis (Sigma, catalog #10070) (protein, UniProt P00691 42-659, looked up)
Alpha-amylase: LTAPSIKSGTILHAWNWSFNTLKHNMKDIHDAGYTAIQTSPINQVKEGNQGDKSMSNWYWLYQPTSYQIGNRYLGTEQEFKEMCAAAEEYGIKVIVDAVINHTTSDYAAISNEVKSIPNWTHGNTQIKNWSDRWDVTQNSLLGLYDWNTQNTQVQSYLKRFLDRALNDGADGFRFDAAKHIELPDDGSYGSQFWPNITNTSAEFQYGEILQDSASRDAAYANYMDVTASNYGHSIRSALKNRNLGVSNISHYASDVSADKLVTWVESHDTYANDDEESTWMSDDDIRLGWAVIASRSGSTPLFFSRPEGGGNGVRFPGKSQIGDRGSALFEDQAITAVNRFHNVMAGQPEELSNPNGNNQIFMNQRGSHGVVLANAGSSSVSINTATKLPDGRYDNKAGAGSFQVNDGKLTGTINARSVAVLYPDDIAKAPHVFLENYKTGVTHSFNDQLTITLRADANTTKAVYQINNGPETAFKDGDQFTIGKGDPFGKTYTIMLKGTNSDGVTRTEKYSFVKRDPASAKTIGYQNPNHWSQVNAYIYKHDGSRVIELTGSWPGKPMTKNADGIYTLTLPADTDTTNAKVIFNNGSAQVPGQNQPGFDYVLNGLYNDSGLSGSLPH
For B1, the “in-vitro effectiveness at the inhibition and reduction of S. Aureus biofilms” value in the assay with S. Aureus biofilms [1] was “certain in-vitro effectiveness”. Also, the “Reduces Biofilm, time” value in the assay on S. Aureus biofilms [2] (Table 1, reduces biofilm only after this time) was at least 3 h. Further, the “Prohibits Biofilm Growth” value with S. Aureus biofilms [3] is “Yes”.

B2: β-Amylase from sweet potato: β-Amylase from sweet potato, Sigma Aldrich research grade (protein, UniProt P10537 2-499, looked up)
Beta-amylase: APIPGVMPIGNYVSLYVMLPLGVVNADNVFPDKEKVEDELKQVKAGGCDGVMVDVWWGIIEAKGPKQYDWSAYRELFQLVKKCGLKIQAIMSFHQCGGNVGDAVFIPIPQWILQIGDKNPDIFYTNRAGNRNQEYLSLGVDNQRLFQGRTALEMYRDFMESFRDNMADFLKAGDIVDIEVGCGAAGELRYPSYPETQGWVFPGIGEFQCYDKYMVADWKEAVKQAGNADWEMPGKGAGTYNDTPDKTEFFRPNGTYKTDMGKFFLTWYSNKLIIHGDQVLEEANKVFVGLRVNIAAKVSGIHWWYNHVSHAAELTAGFYNVAGRDGYRPIARMLARHHATLNFTCLEMRDSEQPAEAKSAPQELVQQVLSSGWKEYIDVAGENALPRYDATAYNQMLLNVRPNGVNLNGPPKLKMSGLTYLRLSDDLLQTDNFELFKKFVKKMHADLDPSPNAISPAVLERSNSAITIDELMEATKGSRPFPWYDVTDMPVDGSNPFD
Turning to B2, the “in-vitro effectiveness at the inhibition and reduction of S. Aureus biofilms” value in the assay on S. Aureus biofilms [1] is listed as “certain in-vitro effectiveness”. The “Reduces Biofilm” value in the assay with S. Aureus biofilms [2] is “No”. Besides, the “Prohibits Biofilm Growth” value with S. Aureus biofilms [3] is given as “Partially”.

B3: α-Amylase from human saliva: α-amylase from human saliva (Sigma, catalog #A1031) (protein, UniProt P0DUB6 16-511, looked up)
Alpha-amylase 1A: QYSSNTQQGRTSIVHLFEWRWVDIALECERYLAPKGFGGVQVSPPNENVAIHNPFRPWWERYQPVSYKLCTRSGNEDEFRNMVTRCNNVGVRIYVDAVINHMCGNAVSAGTSSTCGSYFNPGSRDFPAVPYSGWDFNDGKCKTGSGDIENYNDATQVRDCRLSGLLDLALGKDYVRSKIAEYMNHLIDIGVAGFRIDASKHMWPGDIKAILDKLHNLNSNWFPEGSKPFIYQEVIDLGGEPIKSSDYFGNGRVTEFKYGAKLGTVIRKWNGEKMSYLKNWGEGWGFMPSDRALVFVDNHDNQRGHGAGGASILTFWDARLYKMAVGFMLAHPYGFTRVMSSYRWPRYFENGKDVNDWVGPPNDNGVTKEVTINPDTTCGNDWVCEHRWRQIRNMVNFRNVVDGQPFTNWYDNGSNQVAFGRGNRGFIVFNNDDWTFSLTLQTGLPAGTYCDVISGDKINGNCTGIKIYVSDDGKAHFSISNSAEDPFIAIHAESKL
On to B3, for which the “in-vitro effectiveness at the inhibition and reduction of S. Aureus biofilms” value with S. Aureus biofilms [1] is recorded as “certain in-vitro effectiveness”. In addition, the “Reduces Biofilm” value with S. Aureus biofilms [2] is listed as “No”. The “Prohibits Biofilm Growth” value in the assay with S. Aureus biofilms [3] is “Yes”.

The values are drawn from patent US20260273029A1, “DRY EYE TREATMENT” (Inoculus Ventures, LLC, priority 2022, published 2026).
